In US11219221B2 (FarmHannong Co., Ltd., priority 2017, dated 2022):
Residue numbers refer to the chain shown, from its start. Names and notes keep the numbering of the source.

B1: A162L + V305M + F360M (protein)
chain: MLDSLIVGAGISGLSAAHTLQKQQTQFLVTESQGRVGGNITTNRQGDYLWEEGPNSFAPTEDLLRLAVEVGLKEDLVFADRRLPRFVYWNQQLHPVPMSPPAALKTQLLSEAGKWRAALGALGFVGGLVGREEETVRQFFTRHLGTEVTERLVAPFVSGVYLGDVDQLSAQAAFRRVFEFAQLGGGLAAGGILARRQAPPKAPPDPSLPETKTGQLGSFREGLEMLPRAIASQLGDRLKLQWRLTHLEITPQQTYLAHFNTPDGPQQIATRTLILTTPAPITADLLKPLTPALHGVLKEIYYPPMACVVLAYPRAASARPLEGFGHLIPRNQGIRTLGTIWSSCLFPGRTPEGEHLLTNMIGGATDPGIAQLDPEEIAQAVHQDLCKILIRPEFTPKILAVRLWKQAIPQYTLGHLQRLATLEQELSKFPGLHILANYTDGVALGDCVKRGVAVAQKIRSRE
modifications: Synthetic (Protoporphyrinogen IX oxidase (CyPPO16) of Spirulina subsalsa)
B2: A162C + V305M + L327T + F360M (protein)
chain: B1 chain with L162C, L327T
modifications: Synthetic (Protoporphyrinogen IX oxidase (CyPPO16) of Spirulina subsalsa)
B3: V305M + L327T + F360M (protein)
chain: B1 chain with L162A, L327T
modifications: Synthetic (Protoporphyrinogen IX oxidase (CyPPO16) of Spirulina subsalsa)
B4: R85A + V160C + A162L + V305M + F360M (protein)
chain: B1 chain with R85A, V160C
modifications: Synthetic (Protoporphyrinogen IX oxidase (CyPPO16) of Spirulina subsalsa)
B5: V160C + A162C + V305M + L327T + F360M (protein)
chain: B1 chain with V160C, L162C, L327T
modifications: Synthetic (Protoporphyrinogen IX oxidase (CyPPO16) of Spirulina subsalsa)
B6: F360V: CyPPO16 variant (protein)
chain: B1 chain with L162A, M305V, M360V
modifications: Synthetic (Protoporphyrinogen IX oxidase (CyPPO16) of Spirulina subsalsa)
notes: CyPPO16 variant
B7: F360T: CyPPO16 variant (protein)
chain: B1 chain with L162A, M305V, M360T
modifications: Synthetic (Protoporphyrinogen IX oxidase (CyPPO16) of Spirulina subsalsa)
notes: CyPPO16 variant
B8: F324V: CyPPO16 variant (protein)
chain: B1 chain with L162A, M305V, F324V, M360F
modifications: Synthetic (Protoporphyrinogen IX oxidase (CyPPO16) of Spirulina subsalsa)
notes: CyPPO16 variant
B9: F360M: CyPPO16 variant (protein)
chain: B1 chain with L162A, M305V
modifications: Synthetic (Protoporphyrinogen IX oxidase (CyPPO16) of Spirulina subsalsa)
notes: CyPPO16 variant
B10: R85A + V160C + A162C + V305M + L327T + F360M: CyPPO16 variant (protein)
chain: B1 chain with R85A, V160C, L162C, L327T
modifications: Synthetic (Protoporphyrinogen IX oxidase (CyPPO16) of Spirulina subsalsa)
notes: CyPPO16 variant
B11: V305M: CyPPO16 variant (protein)
chain: B1 chain with L162A, M360F
modifications: Synthetic (Protoporphyrinogen IX oxidase (CyPPO16) of Spirulina subsalsa)
notes: CyPPO16 variant
B12: R85A: CyPPO16 variant (protein)
chain: B1 chain with R85A, L162A, M305V, M360F
modifications: Synthetic (Protoporphyrinogen IX oxidase (CyPPO16) of Spirulina subsalsa)
notes: CyPPO16 variant
B13: L327T: CyPPO16 variant (protein)
chain: B1 chain with L162A, M305V, L327T, M360F
modifications: Synthetic (Protoporphyrinogen IX oxidase (CyPPO16) of Spirulina subsalsa)
notes: CyPPO16 variant

tested on: CyPPO16; experiment: Herbicide tolerance test of CyPPO16 wild type and variants in PPO-deficient E. coli BT3(ΔPPO); format: cell-based, Spirulina subsalsa; conditions: BT3(ΔPPO) transformants, two or more amino acid mutations; dark, 37° C., 16 to 20 hours; relative to wild type at highest concentration (50, 200 μM)
Procedure: The mutated CyPPO gene obtained from the Example 2 was transformed to BT3 (ΔPPO) strain which is deficient of PPO activity and cultured in LB media with PPO-inhibiting herbicide, thereby examining whether growth of transformed BT3 was not inhibited.
BT3 competent cells were transformed with the pET303-CyPPO16 and pET303-CyPPO17 plasmids and those with a mutation(s) constructed in Example 2 respectively, and were cultured in LB agar media containing carbenicillin (Gold Biotechnology, Co., Ltd.).
Single colony of E. coli transformed with each CyPPO gene was cultured in 3 ml of LB broth containing carbenicillin overnight, and then was subcultured until absorbance (0D600) reached 0.5 to 1. Then, it was diluted with LB broth to OD600=0.5. Again, the diluted solution was serially diluted 4 times by a factor of one tenth.
The LB agar media (LB 25 g/l, Bacto agar 15 g/l) containing carbenicillin (100 μg/ml) and 0 to 4,000 μM of various herbicides dissolved in DMSO was prepared. Next, 10 μl of each diluted solution was dropped on the plate and cultured at 37° C. under light (Tables 7 and 9, FIGS. 2 to 6, and 18 to 22) or dark (Tables 8 and 10, FIGS. 7 to 17, and 23 to 33) for 16 to 20 hours. Then, extent of tolerance was evaluated.
The extent of herbicide tolerance of the mutated genes was evaluated by comparing that of mutated genes with that of wild type. The relative tolerance was represented with “+” as a factor of 10 times. Evaluation result was listed in Tables 7 to10 and FIGS. 2 to 33:
In Tables 7 to 10, tolerance level was presented as of tolerance of wild type and of variants equivalent to that of wild type, and was done as ‘+’ per each 10 fold resistance until ‘+++++’ as maximal resistance. (Tolerance level was evaluated by relative growth level of variants to that of wild type in the media containing highest concentration of herbicide; ‘+’=1-9 fold higher tolerance, ‘++’=10-99 fold higher tolerance, ‘+++’=100-999 fold higher tolerance, ‘++++’=1,000-9,999 fold higher tolerance, ‘+++++’=more than 10,000 fold higher tolerance)
The concentrations of herbicides were written above the photographs of tolerance test. A dilution series (0D600=0.5, 0.05, 0.005, 0.0005, 0.00005) was made and spotted on LB agar plates supplemented with herbicides.

Molecule | Herbicide tolerance, tiafenacil
B1 | +++++ (‘+++++’=more than 10,000 fold higher tolerance)
B2 | +++++ (‘+++++’=more than 10,000 fold higher tolerance)
B3 | +++++ (‘+++++’=more than 10,000 fold higher tolerance)
B4 | +++++ (‘+++++’=more than 10,000 fold higher tolerance)
B5 | +++++ (‘+++++’=more than 10,000 fold higher tolerance)

same assay, conditions: BT3(ΔPPO) transformants, two or more amino acid mutations; dark; relative to wild type at highest concentration (25, 50 μM)

Molecule | Herbicide tolerance, flumioxazin
B1 | +++++ (‘+++++’=more than 10,000 fold higher tolerance)
B2 | +++++ (‘+++++’=more than 10,000 fold higher tolerance)
B3 | +++++ (‘+++++’=more than 10,000 fold higher tolerance)
B4 | +++++ (‘+++++’=more than 10,000 fold higher tolerance)
B5 | +++++ (‘+++++’=more than 10,000 fold higher tolerance)

same assay, conditions: BT3(ΔPPO) transformants, two or more amino acid mutations; dark; relative to wild type at highest concentration (2000, 4000 μM)

Molecule | Herbicide tolerance, sulfentrazone
B1 | ++++ (‘++++’=1,000-9,999 fold higher tolerance)
B2 | ++++ (‘++++’=1,000-9,999 fold higher tolerance)
B3 | ++++ (‘++++’=1,000-9,999 fold higher tolerance)
B4 | +++++ (‘+++++’=more than 10,000 fold higher tolerance)
B5 | +++++ (‘+++++’=more than 10,000 fold higher tolerance)

tested on: CyPPO16; experiment: PPO enzyme activity of MBP-fused CyPPO16 wild type and variants; format: biochemical, Spirulina subsalsa; conditions: PPO enzyme activity relative to wild type; MBP-fused protein, 50 μM protoporphyrinogen IX, room temperature, 30 min
Procedure: Thus, PPO proteins of wild type and variants were expressed as fused to MBP and were used for experiments.
The following process for purification of PPO protein was performed in a 4° C. cold room. Amylose resin (NEB) was packed to 1.5×15 cm column (Bio-Rad, Econo Columns 1.5×15 cm, glass chromatography column, max. vol), and the obtained protein extracts were loaded to the column at a flow rate of 0.2 ml/min. The column was washed with 3 column volumes of buffer and the presence of protein in the washing solution was examined. When the protein was no longer detected, the washing procedure was terminated. Then, the MBP-PPO protein was eluted with approximately 2 column volumes of buffer containing 20 mM maltose. The protein concentration of each eluent was determined and the elution was stopped when the protein was no longer detected. Ten microliter of each fraction was investigated for protein quantification and SDS-PAGE analysis. The highly pure fractions of PPO protein variants were used for the enzyme assay.
Since protoporphyrinogen IX, a substrate of PPO protein, was not commercially available, it was chemically synthesized in the laboratory. Overall process was performed in dark under nitrogen stream. […] of protoporphyrin IX was dissolved in 20 ml of 20% (v/v) EtOH, and stirred under dark condition for 30 minutes. The obtained protoporphyrin IX solution was put into a 15 ml screw tube in an amount of 800 μl, and flushed with nitrogen gas for 5 minutes. To this, 1.5 g of sodium amalgam was added and vigorously shaken for 2 minutes. The lid was opened to exhaust hydrogen gas in the tube. Thereafter, the lid was closed and incubated for 3 minutes. The protoporphyrinogen IX solution was filtered using syringe and cellulose membrane filter. […] To determine the enzyme activity of PPO protein, a reaction mixture was prepared with the following composition (based on 10 ml): 50 mM Tris-Cl (pH 8.0); 50 mM NaCl; 0.04% (v/v) Tween 20; 40 mM glucose (0.072 g); 5 units glucose oxidase (16.6 mg); and 10 units catalase (1 μl).
Hundred and eighty microliters of a reaction mixture containing the purified PPO protein were placed in 96 well plates and 20 μl of […] were added. […] The reaction proceeded at room temperature for 30 min and the fluorescence of protoporphyrin IX was measured using Microplate reader (Sense, Hidex) (excitation: 405 nm; emission: 633 nm). […] To this, 2.7 N HCl was added, and the absorbance at 408 nm was measured. A standard curve was generated using standard protoporphyrin IX, and PPO activity was measured by calibration of protoporphyrin IX using the standard curve of protoporphyrin IX.
Activities of variants were presented relatively compared to that of wild type.

Molecule | Activity (%)
B6 | 69%
B7 | 25%
B8 | 23%
B9 | 83%
B10 | 13%
B11 | 72%
B12 | 94%
B13 | 68%
